Reference: US20070231333A1, “ANTI-5T4 ANTIBODIES AND USES THEREOF” (Wyeth, priority 2006, published 2007)

Experiments:
human 5T4 antigen [1] = molecular target: T1, human 5T4 antigen (Homo sapiens, UniProt Q13641); assay: BIACORE analysis of antibody binding to human 5T4 antigen immobilized on a CM5 chip; conditions: chimeric and humanized antibodies, Table 12
T1 sequence (Q13641 32-420): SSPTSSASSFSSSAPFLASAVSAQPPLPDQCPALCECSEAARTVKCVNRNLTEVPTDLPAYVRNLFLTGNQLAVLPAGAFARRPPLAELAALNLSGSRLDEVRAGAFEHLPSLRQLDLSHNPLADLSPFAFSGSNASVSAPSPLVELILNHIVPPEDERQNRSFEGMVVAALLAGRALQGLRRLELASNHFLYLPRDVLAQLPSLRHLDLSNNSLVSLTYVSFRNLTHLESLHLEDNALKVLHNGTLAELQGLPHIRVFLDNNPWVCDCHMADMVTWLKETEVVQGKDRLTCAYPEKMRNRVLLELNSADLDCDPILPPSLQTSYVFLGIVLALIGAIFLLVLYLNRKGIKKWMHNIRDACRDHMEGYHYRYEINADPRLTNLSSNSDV
Method: To assess the binding specificity and affinity of the A1, A2, and A3 antibodies, BIACORE® analysis was performed using human 5T4 antigen immobilized on a CM5 chip. BIACORE® technology utilizes changes in the refractive index at the surface layer upon binding of the antibody to the 5T4 antigen immobilized on the layer. Binding is detected by surface plasmon resonance (SPR) of laser light refracting from the surface. Analysis of the signal kinetics on rate and off rate allows discrimination between non-specific and specific interactions. The H8 anti-5T4 antibody was used as a control. H8 is a hybridoma-generated monoclonal mouse IgG1 antibody described in PCT International Publication No. WO 98/55607 and in Forsberg et al. (1997) J. Biol. Chem. 272(19):[…].
To assess the binding specificity and affinity of the chimeric and humanized H8, A1, A2, and A3 antibodies, BIACORE® analysis was performed using human 5T4 antigen immobilized on a CM5 chip. See Example 2.

[2] = molecular target: T2, mouse 5T4 ectodomain/Fc fusion protein (Mus musculus, UniProt Q9Z0L0); assay: Cross-species reactivity ELISA, 5T4 ectodomain/Fc fusion proteins; assay type: binding; design: key: +: binding; −: no binding; +/−: partial binding
T2 construct: prepared using mouse 5T4 (amino acids 1-361); human IgG1 Fc; made in house; host or cells: COS-1 cells (transient transfection)
T2 sequence (Q9Z0L0 32-361): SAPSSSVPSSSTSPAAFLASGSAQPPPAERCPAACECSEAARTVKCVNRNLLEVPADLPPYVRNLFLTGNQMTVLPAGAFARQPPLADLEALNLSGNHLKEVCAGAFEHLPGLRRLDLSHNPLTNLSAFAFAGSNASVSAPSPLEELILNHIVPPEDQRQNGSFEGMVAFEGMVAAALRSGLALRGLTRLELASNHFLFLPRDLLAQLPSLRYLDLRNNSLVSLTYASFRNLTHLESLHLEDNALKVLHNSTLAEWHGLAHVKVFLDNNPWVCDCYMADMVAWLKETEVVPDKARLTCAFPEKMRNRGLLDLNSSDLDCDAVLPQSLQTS
Method: (§1) The cross-species reactivity of anti-5T4 antibodies disclosed herein was assayed to determine relevant species for in vivo efficacy studies and toxicology analysis. Correlation of binding activity and relatedness of the different 5T4 ectodomains was also used to further describe the epitope bound by each antibody. Binding assays were performed using 5T4 ectodomains from various species fused to human IgG1 Fc. To assay binding of anti-5T4 antibodies, 5T4 ectodomain/Fc fusion proteins were transiently transfected into COS-1 cells, and ELISA assays were performed. Non-relevant human IgG4 and IgG1 antibodies were used as controls.

[3] = molecular target: T3, rat 5T4 ectodomain/Fc fusion protein (Rattus norvegicus, UniProt Q5PQV5); assay: as above; assay type: binding; design: key: +: binding; −: no binding; +/−: partial binding
T3 construct: rat 5T4 (amino acids 1-361); human IgG1 Fc; made in house; host or cells: COS-1 cells (transient transfection)
T3 sequence (Q5PQV5 32-361): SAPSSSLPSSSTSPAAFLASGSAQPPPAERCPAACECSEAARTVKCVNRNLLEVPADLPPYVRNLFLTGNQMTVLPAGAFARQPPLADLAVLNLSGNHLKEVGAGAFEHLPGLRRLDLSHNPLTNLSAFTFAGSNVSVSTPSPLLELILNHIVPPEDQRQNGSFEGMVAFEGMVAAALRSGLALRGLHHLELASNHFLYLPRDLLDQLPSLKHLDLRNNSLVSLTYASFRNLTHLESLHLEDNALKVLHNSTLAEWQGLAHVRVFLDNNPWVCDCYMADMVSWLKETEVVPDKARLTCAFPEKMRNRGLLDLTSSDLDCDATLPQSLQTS
Method: as §1

human 5T4 antigen [4] = molecular target: T1, human 5T4 antigen; assay: BIACORE competition assay: second antibody after saturation with first antibody; assay type: binding
Method: Epitope mapping of the H8, A1, A2, and A3 antibodies was also performed using BIACORE® using a CM5 chip with bound human 5T4 antigen. The chip was saturated with H8, A1, A2, or A3 antibody, and a first response was measured. The chip was then saturated with a second antibody from among the H8, A1, A2, and A3 antibodies, and a second response was measured. For multiple experiments, the chip was regenerated by dissociation of the bound antibodies in 10 mM glycine, pH 1.5, followed by a buffer wash. The percentages shown are the response units measured upon binding by a second antibody directly to the CM5 chip divided by the response units measured upon binding of the second antibody to a CM5 chip saturated with a first antibody.
The epitopes bound by the H8 and A3 antibodies are sterically close to each other such that the rate of association with antigen is decreased when binding of H8 is assayed in the presence of A3, and vice versa. Similar results were obtained using the chimeric and humanized H8, A1, A2, and A3 antibodies, which were prepared as described in Example 7 herein below.

[5] = first antibody chimeric A3, 19 seconds after injection of second antibody
[6] = first antibody chimeric A3, 37.5 seconds after injection of second antibody
[7] = first antibody chimeric A3, 75 seconds after injection of second antibody
[8] = first antibody chimeric A3, 150 seconds after injection of second antibody
[9] = first antibody chimeric A3, 300 seconds after injection of second antibody
[10] = first antibody chimeric A3, 600 seconds after injection of second antibody

B1: Chimeric A3 + C91Y: chimeric A3 antibody bearing C91Y mutation in the heavy chain variable region (antibody, V domains shown)
VH: EVQLVESGGGLVQPKGSLKLSCAASGFTFNTYAMNWVRQAPGKGLEWVARIRSKSNNYATYYADSVKDRFTISRDDSQSMLYLQMNNLKTEDTAMYYCVRQWDYDVRAMNYWGQGTSVTVSS
VL: DIVMTQSHIFMSTSVGDRVSITCKASQDVDTAVAWYQQKPGQSPKLLIYWASTRLTGVPDRFTGSGSGTDFTLTISNVQSEDLADYFCQQYSSYPYTFGGGTKLEIK
For B1, the “KA” value (human 5T4 antigen [1]) was 1.7e+09 M⁻¹, the Kd (human 5T4 antigen [1]) was 5.9 nM and the “ka” value (human 5T4 antigen [1]) was 27000 M⁻¹ s⁻¹. For the same molecule, the “kd” value (human 5T4 antigen [1]) was 1.6e-05 s⁻¹.

B2: chimeric A2: chimeric A2 antibody: murine A2 variable regions, human IgG4 heavy chain and human kappa light chain constant regions (antibody, V domains shown)
VH: QVQLQQSRPELVKPGASVKMSCKASGYTFTDYVISWVKQRTGQGLEWIGEIYPGSNSIYYNEKFKGRATLTADKSSSTAYMQLSSLTSEDSAVYFCAMGGNYGFDYWGQGTTLTVSS
VL: QIVLTQSPAIMSASLGERVTLTCTASSSVNSNYLHWYQQKPGSSPKLWIYSTSNLASGVPARFSGSGSGTSYSLTISSMEAEDAATYYCHQYHRSPLTFGAGTKLELK
In the case of B2, the “cross-reactivity (binding class)” value [2] is reported as “−”, the “cross-reactivity (binding class)” value [3] is reported as “−” and the “Percentage of Second Antibody Bound Following Saturation With First Antibody” value (human 5T4 antigen [4]; first antibody chimeric A1, 19 seconds after injection of second antibody) is reported as 102.9%. The “Percentage of Second Antibody Bound Following Saturation With First Antibody” value (human 5T4 antigen [4]; first antibody chimeric A1, 37.5 seconds after injection of second antibody) was 93.5%, the “Percentage of Second Antibody Bound Following Saturation With First Antibody” value (human 5T4 antigen [4]; first antibody chimeric A1, 75 seconds after injection of second antibody) was 90.1% and the “Percentage of Second Antibody Bound Following Saturation With First Antibody” value (human 5T4 antigen [4]; first antibody chimeric A1, 150 seconds after injection of second antibody) was 89.0%. The “Percentage of Second Antibody Bound Following Saturation With First Antibody” value (human 5T4 antigen [4]; first antibody chimeric A1, 300 seconds after injection of second antibody) was 88.9%, the “Percentage of Second Antibody Bound Following Saturation With First Antibody” value (human 5T4 antigen [4]; first antibody chimeric A1, 600 seconds after injection of second antibody) was 89.1% and the “Percentage of Second Antibody Bound Following Saturation With First Antibody” value (human 5T4 antigen [4]; [5]) was 89.2%. The “Percentage of Second Antibody Bound Following Saturation With First Antibody” value (human 5T4 antigen [4]; [6]) was 88.4%, the “Percentage of Second Antibody Bound Following Saturation With First Antibody” value (human 5T4 antigen [4]; [7]) was 89.8% and the “Percentage of Second Antibody Bound Following Saturation With First Antibody” value (human 5T4 antigen [4]; [8]) was 91.5%. For the same molecule, the “Percentage of Second Antibody Bound Following Saturation With First Antibody” value (human 5T4 antigen [4]; [9]) was 92.9%, the “Percentage of Second Antibody Bound Following Saturation With First Antibody” value (human 5T4 antigen [4]; [10]) was 94.3% and the “KA” value (human 5T4 antigen [1]) was 5.7e+08 M⁻¹. The “ka” value (human 5T4 antigen [1]) was 140000 M⁻¹ s⁻¹ and the “kd” value (human 5T4 antigen [1]) was 0.00025 s⁻¹.

B3: chimeric A1: chimeric A1 antibody: murine A1 variable regions, human IgG4 heavy chain and human kappa light chain constant regions (antibody, V domains shown)
VH: QIQLVQSGPELKKPGETVKISCKASGYTFTNFGMNWVKQGPGEGLKWMGWINTNTGEPRYAEEFKGRCAFSLETTASTAYLQINNLKNEDTATYFCARDWDGAYFFDYWGQGTTLTVSS
VL: SIVMTQTPKFLLVSAGDRVTITCKASQSVSNDVAWYQQKPGQSPKLLINFATNRYTGVPNRFTGSGYGTDFTFTISTVQAEDLALYFCQQDYSSPWTFGGGTKLEIK
For B3, the “cross-reactivity (binding class)” value [2] was “−”, the “cross-reactivity (binding class)” value [3] was “+/−” and the “Percentage of Second Antibody Bound Following Saturation With First Antibody” value (human 5T4 antigen [4]; first antibody chimeric A2, 19 seconds after injection of second antibody) was 92.5%. For the same molecule, the “Percentage of Second Antibody Bound Following Saturation With First Antibody” value (human 5T4 antigen [4]; first antibody chimeric A2, 37.5 seconds after injection of second antibody) was 90.6%, the “Percentage of Second Antibody Bound Following Saturation With First Antibody” value (human 5T4 antigen [4]; first antibody chimeric A2, 75 seconds after injection of second antibody) was 91.4% and the “Percentage of Second Antibody Bound Following Saturation With First Antibody” value (human 5T4 antigen [4]; first antibody chimeric A2, 300 seconds after injection of second antibody) was 93.9%. For the same molecule, the “Percentage of Second Antibody Bound Following Saturation With First Antibody” value (human 5T4 antigen [4]; first antibody chimeric A2, 600 seconds after injection of second antibody) was 95.5%, the “Percentage of Second Antibody Bound Following Saturation With First Antibody” value (human 5T4 antigen [4]; [5]) was 98.8% and the “Percentage of Second Antibody Bound Following Saturation With First Antibody” value (human 5T4 antigen [4]; [6]) was 96.5%. For the same molecule, the “Percentage of Second Antibody Bound Following Saturation With First Antibody” value (human 5T4 antigen [4]; [7]) was 97.0%, the “Percentage of Second Antibody Bound Following Saturation With First Antibody” value (human 5T4 antigen [4]; [8]) was 98.0% and the “Percentage of Second Antibody Bound Following Saturation With First Antibody” value (human 5T4 antigen [4]; [9]) was 98.8%. For the same molecule, the “Percentage of Second Antibody Bound Following Saturation With First Antibody” value (human 5T4 antigen [4]; [10]) was 99.6%, the “KA” value (human 5T4 antigen [1]) was 2.3e+09 M⁻¹ and the “ka” value (human 5T4 antigen [1]) was 150000 M⁻¹ s⁻¹. For the same molecule, the “kd” value (human 5T4 antigen [1]) was 6.7e-05 s⁻¹.

B4: Chimeric A1 + C67F: chimeric A1 antibody bearing C67F mutation in the heavy chain variable region (antibody, V domains shown)
VH: QIQLVQSGPELKKPGETVKISCKASGYTFTNFGMNWVKQGPGEGLKWMGWINTNTGEPRYAEEFKGRFAFSLETTASTAYLQINNLKNEDTATYFCARDWDGAYFFDYWGQGTTLTVSS
VL: SIVMTQTPKFLLVSAGDRVTITCKASQSVSNDVAWYQQKPGQSPKLLINFATNRYTGVPNRFTGSGYGTDFTFTISTVQAEDLALYFCQQDYSSPWTFGGGTKLEIK
For B4, the “KA” value (human 5T4 antigen [1]) was 2.6e+09 M⁻¹, the “ka” value (human 5T4 antigen [1]) was 170000 M⁻¹ s⁻¹ and the “kd” value (human 5T4 antigen [1]) was 6.3e-05 s⁻¹.
